Test results from US11278600B2, “Human alpha-galactosidase variants” (Codexis, Inc., priority 2014, dated 2022).
Substitutions are numbered along the chain they refer to.

B1: 567 (protein)
chain: LDNGLARTPTMGWLHWERFMCNLDCQEEPDSCISEKLFMEMAERMVSEGWKDAGYEYLCIDDCWMAPQRDSEGRLQADPQRFPHGIRQLANHVHSKGLKLGIYADVGNKTCAGFPGSFGYYDIDAQTFADWGVDLLKFDGCYCDSLENLADGYKHMSLALNRTGRSIVYSCEWPLYMWPFQKPNYTEIRQYCNHWRNFADIDDSWASIKSILDWTSRNQERIVDVAGPGGWNDPDMLVIGNFGLSWDQQVTQMALWAIMAAPLFMSNDLRHISPQAKALLQDKDVIAINQDPLGKQGYQLRKGDNFEVWERPLSGDAWAVAIINRQEIGGPRSYTIPVASLGKGVACQPACFITQLLPVKRQLGFYNWTSRLKSHINPTGTVLLQLENTMQMSLKDLL
modifications: Synthetic Polypeptide sequence of Variant No. 567 of mature Human GLA
B2: 581 (protein)
chain: B1 chain with W246S, Q348N
modifications: Synthetic Polypeptide sequence of Variant No. 581 of mature Human GLA
B3: 582 (protein)
chain: B1 chain with S210A, Q348N
modifications: Synthetic Polypeptide sequence of Variant No. 582 of mature Human GLA
B4: 578 (protein)
chain: B1 chain with W246I, Q348N
modifications: Synthetic Polypeptide sequence of Variant No. 578 of mature Human GLA
B5: 577 (protein)
chain: B1 chain with W246A, Q348N
modifications: Synthetic Polypeptide sequence of Variant No. 577 of mature Human GLA
B6: 571 (protein)
chain: B1 chain with N305K, Q348N
modifications: Synthetic Polypeptide sequence of Variant No. 571 of mature Human GLA
B7: 580 (protein)
chain: B1 chain with W246R, Q348N
modifications: Synthetic Polypeptide sequence of Variant No. 580 of mature Human GLA
B8: 568 (protein)
chain: B1 chain with Q348R
modifications: Synthetic Polypeptide sequence of Variant No. 568 of mature Human GLA
B9: 573 (protein)
chain: B1 chain with S314A, Q348N
modifications: Synthetic Polypeptide sequence of Variant No. 573 of mature Human GLA
B10: 576 (protein)
chain: B1 chain with S314Y, Q348N
modifications: Synthetic Polypeptide sequence of Variant No. 576 of mature Human GLA
B11: 570 (protein)
chain: B1 chain with Q348N, T354S
modifications: Synthetic Polypeptide sequence of Variant No. 570 of mature Human GLA
B12: 572 (protein)
chain: B1 chain with N305L, Q348N
modifications: Synthetic Polypeptide sequence of Variant No. 572 of mature Human GLA
B13: 569 (protein)
chain: B1 chain with Q348W
modifications: Synthetic Polypeptide sequence of Variant No. 569 of mature Human GLA
B14: 579 (protein)
chain: B1 chain with W246P, Q348N
modifications: Synthetic Polypeptide sequence of Variant No. 579 of mature Human GLA
B15: 574 (protein)
chain: B1 chain with S314H, Q348N
modifications: Synthetic Polypeptide sequence of Variant No. 574 of mature Human GLA
B16: 575 (protein)
chain: B1 chain with S314N, Q348N
modifications: Synthetic Polypeptide sequence of Variant No. 575 of mature Human GLA

Assay: HTP-analysis of yeast culture supernatants, no challenge (MUGal hydrolysis)
Assay type: biochemical
Conditions: activity of the variant/activity of Rd3BB (SEQ ID NO: 13)
Method in brief: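 Activity read as 4-methylumbelliferyl α-D-galactopyranoside hydrolysis: fluorescence (355/448 nm) after sodium carbonate stop, following 30-180 min at 37° C with 2 mM MUGal stock at pH 4.6–4.8. Enzyme source is unchallenged culture supernatant of INVSc1 yeast expressing GLA variants, grown 66-84 h at 30° C.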

Row | Molecule | Relative Activity of GLA Variants After No Challenge (NC)
1 | B1 | + (+ = 1.5 to 5 relative activity over Rd3BB (SEQ ID NO: 13))
2 | B2 | + (+ = 1.5 to 5 relative activity over Rd3BB (SEQ ID NO: 13))
3 | B3 | + (+ = 1.5 to 5 relative activity over Rd3BB (SEQ ID NO: 13))
4 | B4 | + (+ = 1.5 to 5 relative activity over Rd3BB (SEQ ID NO: 13))
5 | B5 | + (+ = 1.5 to 5 relative activity over Rd3BB (SEQ ID NO: 13))
6 | B6 | + (+ = 1.5 to 5 relative activity over Rd3BB (SEQ ID NO: 13))
7 | B7 | + (+ = 1.5 to 5 relative activity over Rd3BB (SEQ ID NO: 13))
8 | B8 | + (+ = 1.5 to 5 relative activity over Rd3BB (SEQ ID NO: 13))
9 | B9 | + (+ = 1.5 to 5 relative activity over Rd3BB (SEQ ID NO: 13))
10 | B10 | + (+ = 1.5 to 5 relative activity over Rd3BB (SEQ ID NO: 13))
11 | B11 | + (+ = 1.5 to 5 relative activity over Rd3BB (SEQ ID NO: 13))
12 | B12 | + (+ = 1.5 to 5 relative activity over Rd3BB (SEQ ID NO: 13))
13 | B13 | + (+ = 1.5 to 5 relative activity over Rd3BB (SEQ ID NO: 13))
14 | B14 | + (+ = 1.5 to 5 relative activity over Rd3BB (SEQ ID NO: 13))
15 | B15 | + (+ = 1.5 to 5 relative activity over Rd3BB (SEQ ID NO: 13))
16 | B16 | + (+ = 1.5 to 5 relative activity over Rd3BB (SEQ ID NO: 13))

Assay: HTP-analysis of supernatants pretreated with acid (MUGal hydrolysis)
Assay type: biochemical
Conditions: activity of the variant/activity of Rd3BB (SEQ ID NO: 13); challenge at pH 3.7
Method in brief: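 Yeast INVSc1 supernatant, GLA variants; acid challenge: McIlvaine pH 3.3-4.3, 37° C., 1-3 h. Assay: MUGal in McIlvaine pH 4.8 plus citrate pH 4.3, 37° C., 30-180 min, Na2CO3 stop, Ex 355/Em 448 nm.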

Row | Molecule | Relative Activity of GLA Variants After Challenge at pH 3.7
17 | B1 | + (+ = 1.5 to 5 relative activity over Rd3BB (SEQ ID NO: 13))
18 | B2 | ++ (++ = >5 to 10 relative activity over Rd3BB (SEQ ID NO: 13))
19 | B3 | + (+ = 1.5 to 5 relative activity over Rd3BB (SEQ ID NO: 13))
20 | B4 | +++ (+++ = >10 relative activity over Rd3BB (SEQ ID NO: 13))
21 | B5 | +++ (+++ = >10 relative activity over Rd3BB (SEQ ID NO: 13))
22 | B6 | + (+ = 1.5 to 5 relative activity over Rd3BB (SEQ ID NO: 13))
23 | B7 | +++ (+++ = >10 relative activity over Rd3BB (SEQ ID NO: 13))
24 | B8 | + (+ = 1.5 to 5 relative activity over Rd3BB (SEQ ID NO: 13))
25 | B9 | + (+ = 1.5 to 5 relative activity over Rd3BB (SEQ ID NO: 13))
26 | B10 | + (+ = 1.5 to 5 relative activity over Rd3BB (SEQ ID NO: 13))
27 | B11 | + (+ = 1.5 to 5 relative activity over Rd3BB (SEQ ID NO: 13))
28 | B12 | +++ (+++ = >10 relative activity over Rd3BB (SEQ ID NO: 13))
29 | B13 | + (+ = 1.5 to 5 relative activity over Rd3BB (SEQ ID NO: 13))
30 | B14 | +++ (+++ = >10 relative activity over Rd3BB (SEQ ID NO: 13))
31 | B15 | + (+ = 1.5 to 5 relative activity over Rd3BB (SEQ ID NO: 13))
32 | B16 | + (+ = 1.5 to 5 relative activity over Rd3BB (SEQ ID NO: 13))

Assay: HTP-analysis of supernatants pretreated with base (MUGal hydrolysis)
Assay type: biochemical
Conditions: activity of the variant/activity of Rd3BB (SEQ ID NO: 13); challenge at pH 9.7
Method in brief: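 GLA variants secreted from yeast INVSc1; culture supernatants pre-incubated with McIlvaine buffer pH 7.0–8.2 or 200 mM bicarbonate pH 9.1–9.7 at 37° C. for 1–18 h. Residual activity: MUGal (4 mM stock) hydrolysis at pH 4.3–4.8, 37° C., 30–180 min, carbonate quench; fluorescence Ex 355/Em 448 nm.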

Row | Molecule | Relative Activity of GLA Variants After Challenge at pH 9.7
33 | B1 | ++ (++ = >5 to 10 relative activity over Rd3BB (SEQ ID NO: 13))
34 | B2 | ++ (++ = >5 to 10 relative activity over Rd3BB (SEQ ID NO: 13))
35 | B3 | ++ (++ = >5 to 10 relative activity over Rd3BB (SEQ ID NO: 13))
36 | B4 | ++ (++ = >5 to 10 relative activity over Rd3BB (SEQ ID NO: 13))
37 | B5 | ++ (++ = >5 to 10 relative activity over Rd3BB (SEQ ID NO: 13))
38 | B6 | ++ (++ = >5 to 10 relative activity over Rd3BB (SEQ ID NO: 13))
39 | B7 | ++ (++ = >5 to 10 relative activity over Rd3BB (SEQ ID NO: 13))
40 | B8 | ++ (++ = >5 to 10 relative activity over Rd3BB (SEQ ID NO: 13))
41 | B9 | ++ (++ = >5 to 10 relative activity over Rd3BB (SEQ ID NO: 13))
42 | B10 | ++ (++ = >5 to 10 relative activity over Rd3BB (SEQ ID NO: 13))
43 | B11 | ++ (++ = >5 to 10 relative activity over Rd3BB (SEQ ID NO: 13))
44 | B12 | ++ (++ = >5 to 10 relative activity over Rd3BB (SEQ ID NO: 13))
45 | B13 | ++ (++ = >5 to 10 relative activity over Rd3BB (SEQ ID NO: 13))
46 | B14 | ++ (++ = >5 to 10 relative activity over Rd3BB (SEQ ID NO: 13))
47 | B15 | ++ (++ = >5 to 10 relative activity over Rd3BB (SEQ ID NO: 13))
48 | B16 | ++ (++ = >5 to 10 relative activity over Rd3BB (SEQ ID NO: 13))
